No end group written: not given here.
What was measured:
Assay in all cases: fluorescence polarisation
[1] = target: VHL-ElonginC-ElonginB (VCB) with VHL N67Q (UniProt P40337;Q15369;Q15370, N67Q)
[2] = target: VHL-ElonginC-ElonginB (VCB), wild type (UniProt P40337;Q15369;Q15370)
[3] = target: VHL-ElonginC-ElonginB (VCB) with VHL P71I (UniProt P40337;Q15369;Q15370, P71I)

Measured: binding result

Chain of VHL-ElonginC-ElonginB (VCB), wild type (P40337 54-213, chain 1 of 3): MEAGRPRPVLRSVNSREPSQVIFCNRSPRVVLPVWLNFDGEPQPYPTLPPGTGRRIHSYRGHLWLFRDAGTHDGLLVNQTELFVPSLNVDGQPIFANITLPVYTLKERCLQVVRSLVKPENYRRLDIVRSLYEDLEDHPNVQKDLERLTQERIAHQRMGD
Chain of VHL-ElonginC-ElonginB (VCB), wild type (Q15369 17-112, chain 2 of 3): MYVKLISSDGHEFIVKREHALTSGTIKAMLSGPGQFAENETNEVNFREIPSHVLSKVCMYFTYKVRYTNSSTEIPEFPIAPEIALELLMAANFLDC
Chain of VHL-ElonginC-ElonginB (VCB), wild type (Q15370 1-104, chain 3 of 3): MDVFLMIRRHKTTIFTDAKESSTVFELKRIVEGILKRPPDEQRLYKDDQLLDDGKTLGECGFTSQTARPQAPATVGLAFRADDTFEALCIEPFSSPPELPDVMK
Chain of VHL-ElonginC-ElonginB (VCB) with VHL P71I (P40337 54-213 P71I, chain 1 of 3): as the sequence (P40337 54-213, chain 1 of 3) above, with P18I counted along it
Chain of VHL-ElonginC-ElonginB (VCB) with VHL P71I (Q15369 17-112, chain 2 of 3): as the sequence (Q15369 17-112, chain 2 of 3) above
Chain of VHL-ElonginC-ElonginB (VCB) with VHL P71I (Q15370 1-104, chain 3 of 3): as the sequence (Q15370 1-104, chain 3 of 3) above
Chain of VHL-ElonginC-ElonginB (VCB) with VHL N67Q (P40337 54-213 N67Q, chain 1 of 3): as the sequence (P40337 54-213, chain 1 of 3) above, with N14Q counted along it
Chain of VHL-ElonginC-ElonginB (VCB) with VHL N67Q (Q15369 17-112, chain 2 of 3): as the sequence (Q15369 17-112, chain 2 of 3) above
Chain of VHL-ElonginC-ElonginB (VCB) with VHL N67Q (Q15370 1-104, chain 3 of 3): as the sequence (Q15370 1-104, chain 3 of 3) above

B1: 5,6-carboxyfluorescein (FAM)-labeled HIF-1α peptide JC9 (peptide)
peptide: DEALAPYIPMDDDFQLRSF
modifications: also: FAM label, site not given here
binds: all assays above
